Measurements from PMC5921532, “Identification of Iridoid Glucoside Transporters in Catharanthus roseus” (Plant and Cell Physiology, 2017).

T1: AtNPF2.9 (Arabidopsis thaliana, UniProt Q9M9V7)
T1 construct: gene NPF2.9; full-length cDNA from transporter library, cRNA expressed in Xenopus laevis oocytes
T1 sequence (Q9M9V7 1-587): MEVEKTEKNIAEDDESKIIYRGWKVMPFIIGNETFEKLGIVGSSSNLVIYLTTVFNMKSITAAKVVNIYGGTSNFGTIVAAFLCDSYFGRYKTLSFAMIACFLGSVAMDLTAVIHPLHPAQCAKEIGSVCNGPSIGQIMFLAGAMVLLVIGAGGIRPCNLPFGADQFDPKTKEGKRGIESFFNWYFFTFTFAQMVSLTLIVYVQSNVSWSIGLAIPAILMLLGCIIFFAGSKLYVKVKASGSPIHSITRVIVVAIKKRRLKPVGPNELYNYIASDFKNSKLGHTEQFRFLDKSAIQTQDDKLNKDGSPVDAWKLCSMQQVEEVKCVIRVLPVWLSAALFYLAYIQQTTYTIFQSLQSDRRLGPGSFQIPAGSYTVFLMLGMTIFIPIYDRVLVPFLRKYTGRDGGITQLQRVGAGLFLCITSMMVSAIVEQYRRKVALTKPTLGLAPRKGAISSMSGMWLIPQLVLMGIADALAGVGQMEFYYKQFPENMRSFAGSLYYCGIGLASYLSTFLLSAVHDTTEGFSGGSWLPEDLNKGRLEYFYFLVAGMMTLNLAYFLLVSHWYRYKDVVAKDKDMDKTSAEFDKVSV

T2: AtNAT4 (Arabidopsis thaliana, UniProt P93039)
T2 construct: gene NAT4; full-length cDNA from transporter library, cRNA expressed in Xenopus laevis oocytes
T2 sequence (P93039 1-526): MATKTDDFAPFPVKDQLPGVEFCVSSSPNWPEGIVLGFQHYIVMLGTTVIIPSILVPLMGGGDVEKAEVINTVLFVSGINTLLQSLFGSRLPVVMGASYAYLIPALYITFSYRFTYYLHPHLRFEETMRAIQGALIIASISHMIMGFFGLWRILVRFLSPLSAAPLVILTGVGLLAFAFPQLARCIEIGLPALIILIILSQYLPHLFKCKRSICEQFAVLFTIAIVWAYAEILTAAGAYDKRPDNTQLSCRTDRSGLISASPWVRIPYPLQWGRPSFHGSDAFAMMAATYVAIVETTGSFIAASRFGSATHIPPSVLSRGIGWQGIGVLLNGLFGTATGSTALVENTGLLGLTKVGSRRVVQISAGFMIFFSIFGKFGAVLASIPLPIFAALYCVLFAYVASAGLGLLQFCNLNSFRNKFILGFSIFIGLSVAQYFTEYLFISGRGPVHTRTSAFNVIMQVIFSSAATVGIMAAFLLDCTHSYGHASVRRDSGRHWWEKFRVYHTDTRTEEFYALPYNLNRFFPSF


Experiments:
AtNPF2.9 = biological target: T1, AtNPF2.9; assay: uptake screen in Xenopus oocytes, LC-MS; assay type: cell-based; details: pH 5.0; Kulori buffer; 0.5-1 mM loganin, 1 h
AtNAT4 = biological target: T2, AtNAT4; assay: uptake screen in Xenopus oocytes, LC-MS; assay type: cell-based; details: pH 5.0; Kulori buffer; 0.5-1 mM loganin, 1 h
[1] = substrate: COC(=O)C1=CO[C@@H](O[C@@H]2O[C@H](CO)[C@@H](O)[C@H](O)[C@H]2O)[C@@H]2[C@@H](C)[C@@H](O)C[C@H]12; assay: uptake into Xenopus oocytes, LC-MS, Michaelis-Menten fit; assay type: cell-based, Catharanthus roseus; details: pH 5.0, Kulori buffer, 12.5 µM to 2 mM loganin

Row | Molecule | uptake screen in Xenopus oocytes, LC-MS (AtNPF2.9) | uptake screen in Xenopus oocytes, LC-MS (AtNAT4) | Km [1] [µM]
1 | COC(=O)C1=CO[C@@H](O[C@@H]2O[C@H](CO)[C@@H](O)[C@H](O)[C@H]2O)[C@@H]2[C@@H](C)[C@@H](O)C[C@H]12 [loganin, (1S,4aS,6S,7R,7aS)-6-hydroxy-7-methyl-1-[(2S,3R,4S,5S,6R)-3,4,5-trihydroxy-6-(hydroxymethyl)oxan-2-yl]oxy-1,4a,5,6,7,7a-hexahydrocyclopenta[c]pyran-4-carboxylate] | initially screened cDNA library | Two transporters were identified | –
2 | CrNPF2.5 (Catharanthus roseus) (protein, full-length, Gateway cloned from C. roseus cDNA into pOO2-GW, cRNA expressed in Xenopus laevis oocytes) MEENQEHKAIKNHEPNYRGIKAMPFVIGNETFEKLGTIGTSTNLLIYLTSVFHMKTITATNLVNIFNGTCNFGTLVGAFLCDTYFGRYNTLGFASVSSFLGMLVLTLTAAIKNLHPEACGNEEGSKCISPSGGQMAFLLSGFAFLIVGASGIRPCNLAFGADQFNPNTDSGRRGINSFFNWYYFTYTFAMMVSLTIIVYVQSNISWSIGLAIPTFLMFLSCATFFVGTRIYVRVLPEGSPLISVARVIVSAFKKRKLELPDEPKLSLFNHSASSTSSINSKISYTDQFRFLNKAAIITSEDEFNSDGSVKNPWRICTIQQVEEVKCLLKLIPVWISCIIYYISVVQQQNYVVFQALQSDRRLFGTSKFKIPAASYIVIAMLALTIWIPIFDRIIVPCLQKITGKEGGITILQRMGIGMVLSVLTMITSALVESKRRKFALNRPTLGFEPRKGAISSMSGVWLIPQLALSGLSEAFTIIGENELFYKECPENMRSIAMALVFVGFAGSSYLSSLLSSIVQKTTGGNESWLAEDLNRGRLDYFYYLIGALETLNLIYFLVCSKWYKYKQVEKIPQVAMEKLNNVEEKSLV | – | – | 387 ± 57
3 | CrNPF2.4 (Catharanthus roseus) (protein, full-length, Gateway cloned from C. roseus cDNA into pOO2-GW, cRNA expressed in Xenopus laevis oocytes) MAEKSSSIDATENGFVKIKEPNHRGVKAMPFIVGNETFEKLGTLGTSANLLIYLTTVFHMKSITATNLINIFNGTCNFGTLLGAFFSDTYFGRYKTLGFASVSSTLGMLILTLTAAISKLHPPSCEKNSKACSGPTSGQFAFLFTAFLFLIIGASGIRPCNLAFGADQFNPNTESGRKGTNSFFNWYYFTFTFAMMVSLTVIVYVQSSISWALGLAIPTFLMLLSCVFFFVGSRIYVKVLPEGSPLTSMMQVIVAAFRKRKLNLPDHQPWDSLFNYISPSSINSKLSYTDQFRWLNKAAIKTSKDHLYAEGSTANPWRLCSMQQVEEVKCVIRSIPIWTSGVLYYVVLNQMSTYLVFQALQSDRRIGKTNFKIPAASYTVFSMLSLSIWIPIYDRIIVPFLRKITKTEQGITILQKMGFGLVIAVITMVVSAIIEDKRRVIALTRPIVGIEERKGGISSLSGFWLVPQLALAGISEAFTVIAQVEFFYKQFPENMRSFGGSFLFCGFAISSYLSSFLISIVHKVTRNSSGGNWLDEDLNKARLDYFYYLVAGLEVLNFGYFLVCAHWYRYKETQSGNEIAMEQILDEPKKNLDVV | – | – | 237 ± 35
4 | CrNPF2.6 (Catharanthus roseus) (protein, full-length, Gateway cloned from C. roseus cDNA into pOO2-GW, cRNA expressed in Xenopus laevis oocytes) MEKNEKLVPNGTKEDGKVAAKNEPNYRGIKAMPFVLGNETCEKLGTIGTSSNLSVYLSTVFHMNTMSANNVINIFNGTCYLGSLVGAFLCDTYFGRYKTLGLGSVASFLGMLMLTLTAAISTLHPTNCDNSGDCKGPSAGQMAFLVGGFVLMVIGASGIRPCNLAFGADQFNPNTESGRRGINSFFNWYYFTYTFAVMVSATIIVYVQSDISWSIGFAIPTSLMFLSCALFFAGTWLYVKVLPQGSPMTSLVQVIVVSVKKRRLKLPGEPSLLFNHIPSNAINSKLPRTNNFRFLDKAAILTPEDKVNPDGSAANKWKLCSIQQVEEVKCVLRVLPIWIAGVIFQISVTQQSNYVPFQAFQSDRHLIKGNKFQIPAGTYNVFSMLALTIWLPIYDRIIIPLLRRWTKKEDGITLLQRMGVGIVLSILSMLVSALVESRRRNLALTRPTLGIQEGQGSISSMSALWFVPQLALMGLAEGFTFIGENELFYKEFPENMRSIAASLVLCGVAVASYLTSFIAEIVHKTTRSGTRDWLAQDLNKARLDYFFYMVAVLEALNLVYFLVCAKWYRYKGTGDLGKLEVAMEKLETEKHLV | – | – | 60 ± 5
